Target: T1, FtsQ (Escherichia coli, UniProt P06136 1-276)
T1 construct: FtsQ of Escherichia coli
Assay: not stated; unpublished results (Luirink and den Blaauwen); method not given

T1 sequence (P06136 whole entry): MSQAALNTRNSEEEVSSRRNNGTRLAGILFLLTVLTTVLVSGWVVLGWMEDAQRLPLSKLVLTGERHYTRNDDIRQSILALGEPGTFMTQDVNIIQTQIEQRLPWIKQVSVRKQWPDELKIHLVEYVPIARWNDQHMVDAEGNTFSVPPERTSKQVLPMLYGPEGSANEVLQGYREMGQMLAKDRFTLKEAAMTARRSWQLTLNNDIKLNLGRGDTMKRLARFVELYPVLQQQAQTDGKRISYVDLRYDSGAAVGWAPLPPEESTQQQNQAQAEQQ

B1: FtsB (natural protein, Escherichia coli, UniProt P0A6S5 1-103, looked up)
chain: MGKLTLLLLAILVWLQYSLWFGKNGIHDYTRVNDDVAAQQATNAKLKARNDQLFAEIDDLNGGQEALEERARNELSMTRPGETFYRLVPDASKRAQSAGQNNR
notes: FtsB of Escherichia coli
stoichiometry N: 1
